Experimental data published in article doi:10.1101/776187.

Legend:
[1] = biological target: dynactin (bovine (purified from bovine brain))
[2] = biological target: human cytoplasmic dynein (recombinant complex of DHC, DIC, DLIC, Tctex, Robl and LC8) (human) (UniProt Q14204)

For “Drosophila BicD-coiled-coil domain 1 (truncated N-terminal fragment of Dm BicD) (domain or fragment)”, the processive run length of DDB^CC1 on microtubules, single molecule TIRF [1] was 2.8 µm, the speed of DDB^CC1 on microtubules, single molecule TIRF [1] was 0.41 µm/s and the processive run length of DDB^CC1 on microtubules, single molecule TIRF [2] was 2.8 µm. The speed of DDB^CC1 on microtubules, single molecule TIRF [2] was 0.41 µm/s.
